# Test results from IntAct's records for PubMed 19196961.
# B1: E3 ubiquitin-protein ligase CHIP (Homo sapiens), Q9UNE7-1 (parent)
# chain: MKGKEEKEGGARLGAGGGSPEKSPSAQELKEQGNRLFVGRKYPEAAACYGRAITRNPLVAVYYTNRALCYLKMQQHEQALADCRRALELDGQSVKAHFFLGQCQLEMESYDEAIANLQRAYSLAKEQRLNFGDDIPSALRIAKKKRWNSIEERRIHQESELHSYLSRLIAAERERELEECQRNHEGDEDDSHVRAQQACIEAKHDKYMADMDELFSQVDEKRKKRDIPDYLCGKISFELMREPCITPSGITYDRKDIEEHLQRVGHFDPVTRSPLTQEQLIPNLAMKEVIDAFISENGWVEDY
# Variants of: B1
# Settings: with lrrk2_human LRRK2, Q5S007
# lrrk2_human LRRK2, Q5S007, sequence (Q5S007 whole entry): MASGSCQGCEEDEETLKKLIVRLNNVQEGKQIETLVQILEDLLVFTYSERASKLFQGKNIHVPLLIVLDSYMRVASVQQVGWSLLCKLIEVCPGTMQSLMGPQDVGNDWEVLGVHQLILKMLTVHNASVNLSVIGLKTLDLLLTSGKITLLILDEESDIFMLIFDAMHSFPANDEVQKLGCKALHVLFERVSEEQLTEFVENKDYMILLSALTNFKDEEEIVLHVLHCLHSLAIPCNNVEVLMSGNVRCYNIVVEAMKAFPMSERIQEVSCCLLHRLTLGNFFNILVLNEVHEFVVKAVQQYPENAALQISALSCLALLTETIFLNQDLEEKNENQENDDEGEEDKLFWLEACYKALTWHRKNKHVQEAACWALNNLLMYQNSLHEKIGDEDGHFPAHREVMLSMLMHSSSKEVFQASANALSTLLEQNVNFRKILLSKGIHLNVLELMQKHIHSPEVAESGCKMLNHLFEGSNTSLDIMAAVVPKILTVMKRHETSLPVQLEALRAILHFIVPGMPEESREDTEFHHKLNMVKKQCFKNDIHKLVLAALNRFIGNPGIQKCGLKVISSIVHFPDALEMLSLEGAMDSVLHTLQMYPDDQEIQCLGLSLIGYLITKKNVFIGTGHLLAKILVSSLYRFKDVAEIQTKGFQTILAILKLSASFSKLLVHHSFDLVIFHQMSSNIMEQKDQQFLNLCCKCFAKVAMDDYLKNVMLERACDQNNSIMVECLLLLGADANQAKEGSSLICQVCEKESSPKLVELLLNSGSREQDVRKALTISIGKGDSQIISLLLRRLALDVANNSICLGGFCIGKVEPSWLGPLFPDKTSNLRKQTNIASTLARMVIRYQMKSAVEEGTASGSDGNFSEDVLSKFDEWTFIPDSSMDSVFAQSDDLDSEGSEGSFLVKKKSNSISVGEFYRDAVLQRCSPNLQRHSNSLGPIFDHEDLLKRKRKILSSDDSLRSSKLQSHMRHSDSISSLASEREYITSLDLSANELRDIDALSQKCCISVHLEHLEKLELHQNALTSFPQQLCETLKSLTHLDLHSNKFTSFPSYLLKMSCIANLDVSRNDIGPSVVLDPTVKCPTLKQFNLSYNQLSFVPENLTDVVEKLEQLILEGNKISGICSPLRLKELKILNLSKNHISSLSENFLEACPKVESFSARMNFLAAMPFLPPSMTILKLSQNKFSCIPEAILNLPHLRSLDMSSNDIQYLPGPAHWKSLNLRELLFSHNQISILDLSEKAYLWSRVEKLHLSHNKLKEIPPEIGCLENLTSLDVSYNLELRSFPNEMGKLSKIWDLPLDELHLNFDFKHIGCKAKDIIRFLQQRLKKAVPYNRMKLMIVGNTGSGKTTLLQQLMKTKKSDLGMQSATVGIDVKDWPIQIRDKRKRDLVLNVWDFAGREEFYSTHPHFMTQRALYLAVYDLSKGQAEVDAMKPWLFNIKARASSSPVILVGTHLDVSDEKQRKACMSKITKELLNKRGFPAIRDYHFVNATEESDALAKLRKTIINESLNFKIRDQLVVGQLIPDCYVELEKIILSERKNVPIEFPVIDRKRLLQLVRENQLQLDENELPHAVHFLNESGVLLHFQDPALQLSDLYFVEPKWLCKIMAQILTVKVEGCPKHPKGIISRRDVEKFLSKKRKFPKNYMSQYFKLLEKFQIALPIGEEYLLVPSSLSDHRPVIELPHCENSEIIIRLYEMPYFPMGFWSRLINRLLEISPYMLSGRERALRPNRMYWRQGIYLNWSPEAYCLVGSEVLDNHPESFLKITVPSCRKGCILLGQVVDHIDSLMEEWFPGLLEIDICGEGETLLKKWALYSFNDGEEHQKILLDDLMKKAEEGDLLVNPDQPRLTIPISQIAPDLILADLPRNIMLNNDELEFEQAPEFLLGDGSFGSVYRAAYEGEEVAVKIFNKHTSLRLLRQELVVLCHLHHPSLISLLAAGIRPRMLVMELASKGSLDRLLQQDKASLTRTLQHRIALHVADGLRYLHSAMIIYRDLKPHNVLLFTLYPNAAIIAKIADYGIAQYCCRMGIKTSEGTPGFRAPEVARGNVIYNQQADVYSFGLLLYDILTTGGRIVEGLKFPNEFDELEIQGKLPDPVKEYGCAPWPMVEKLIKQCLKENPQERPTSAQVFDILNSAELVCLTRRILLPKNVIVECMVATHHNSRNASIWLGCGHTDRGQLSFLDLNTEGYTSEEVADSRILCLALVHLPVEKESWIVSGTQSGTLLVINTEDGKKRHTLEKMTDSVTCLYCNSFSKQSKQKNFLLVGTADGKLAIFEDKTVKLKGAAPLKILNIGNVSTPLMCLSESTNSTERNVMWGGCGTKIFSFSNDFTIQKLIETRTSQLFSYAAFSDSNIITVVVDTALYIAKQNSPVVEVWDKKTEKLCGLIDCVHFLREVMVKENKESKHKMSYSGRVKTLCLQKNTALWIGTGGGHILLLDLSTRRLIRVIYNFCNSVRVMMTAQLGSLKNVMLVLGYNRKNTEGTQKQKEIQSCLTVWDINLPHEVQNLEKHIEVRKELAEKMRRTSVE
row,effect of a mutation on the interaction,Variant
1,disrupting interaction,K30C
